# From patent publication US20260167699A1 (Chugai, published 2026)
# Where a chain is given by its changes, count along the chain named.
# B1: GpH7-A5/GpH7-B3 variant K334_04F/GpL16-k0 (antibody, human IgG1, kappa)
# heavy 1: not shown
# heavy 2: not shown
# light: DIVMTQSPLSLPVTPGEPASISCQASESLVHSNRNTYLHWYLQKPGQSPQLLIYKVSNRFSGVPDRFSGSGSGTDFTLKISRVEAEDVGVYYCSQNTHVPPTFGQGTKVEIERTVAAPSVFIFPPSDEQLKSGTASVVCLLNNFYPREAKVQWKVDNALQSGNSQESVTEQDSKDSTYSLSSTLTLSKADYEKHKVYACEVTHQGLSSPVTKSFNRGEC
# notes: heterodimerized IgG1 (He Ab), mutation in one H chain only; also called He Ab
# B2: GpH7-A5/GpH7-B3 variant K334_10E/GpL16-k0 (antibody, human IgG1, kappa)
# heavy 1: not shown
# heavy 2: not shown
# light: B1 light
# notes: as for B1
# B3: GpH7-A5/GpH7-B3 variant P331_18N/GpL16-k0 (antibody, human IgG1, kappa)
# heavy 1: not shown
# heavy 2: not shown
# light: B1 light
# notes: as for B1
# B4: GpH7-A5/GpH7-B3 variant K334_09D/GpL16-k0 (antibody, human IgG1, kappa)
# heavy 1: not shown
# heavy 2: not shown
# light: B1 light
# notes: as for B1
# B5: GpH7-A5/GpH7-B3 variant K334_06M/GpL16-k0 (antibody, human IgG1, kappa)
# heavy 1: not shown
# heavy 2: not shown
# light: B1 light
# notes: as for B1
# B6: GpH7-A5/GpH7-B3 variant P331_14T/GpL16-k0 (antibody, human IgG1, kappa)
# heavy 1: not shown
# heavy 2: not shown
# light: B1 light
# notes: as for B1
# B7: GpH7-A5/GpH7-B3 variant K334_07I/GpL16-k0 (antibody, human IgG1, kappa)
# heavy 1: not shown
# heavy 2: not shown
# light: B1 light
# notes: as for B1
# B8: GpH7-A5/GpH7-B3 variant K334_08L/GpL16-k0 (antibody, human IgG1, kappa)
# heavy 1: not shown
# heavy 2: not shown
# light: B1 light
# notes: as for B1
# B9: GpH7-A5/GpH7-B3 variant P331_12R/GpL16-k0 (antibody, human IgG1, kappa)
# heavy 1: not shown
# heavy 2: not shown
# light: B1 light
# notes: as for B1
# B10: GpH7-A5/GpH7-B3 variant P331_16H/GpL16-k0 (antibody, human IgG1, kappa)
# heavy 1: not shown
# heavy 2: not shown
# light: B1 light
# notes: as for B1
# B11: GpH7-A5/GpH7-B3 variant K334_05P/GpL16-k0 (antibody, human IgG1, kappa)
# heavy 1: not shown
# heavy 2: not shown
# light: B1 light
# notes: as for B1
# B12: GpH7-A5/GpH7-B3 variant P331_08L/GpL16-k0 (antibody, human IgG1, kappa)
# heavy 1: not shown
# heavy 2: not shown
# light: B1 light
# notes: as for B1
# B13: GpH7-A5/GpH7-B3 variant P331_09D/GpL16-k0 (antibody, human IgG1, kappa)
# heavy 1: not shown
# heavy 2: not shown
# light: B1 light
# notes: as for B1
# B14: GpH7-A5/GpH7-B3 variant P331_13S/GpL16-k0 (antibody, human IgG1, kappa)
# heavy 1: not shown
# heavy 2: not shown
# light: B1 light
# notes: as for B1
# B15: GpH7-A5/GpH7-B3 variant K334_19Q/GpL16-k0 (antibody, human IgG1, kappa)
# heavy 1: not shown
# heavy 2: not shown
# light: B1 light
# notes: as for B1
# B16: GpH7-A5/GpH7-B3 variant K334_13S/GpL16-k0 (antibody, human IgG1, kappa)
# heavy 1: not shown
# heavy 2: not shown
# light: B1 light
# notes: as for B1
# B17: GpH7-A5/GpH7-B3 variant K334_20W/GpL16-k0 (antibody, human IgG1, kappa)
# heavy 1: not shown
# heavy 2: not shown
# light: B1 light
# notes: as for B1
# B18: GpH7-A5/GpH7-B3 variant K334_18N/GpL16-k0 (antibody, human IgG1, kappa)
# heavy 1: not shown
# heavy 2: not shown
# light: B1 light
# notes: as for B1
# B19: GpH7-A5/GpH7-B3 variant P331_06M/GpL16-k0 (antibody, human IgG1, kappa)
# heavy 1: not shown
# heavy 2: not shown
# light: B1 light
# notes: as for B1
# B20: GpH7-A5/GpH7-B3 variant K334_16H/GpL16-k0 (antibody, human IgG1, kappa)
# heavy 1: not shown
# heavy 2: not shown
# light: B1 light
# notes: as for B1
# B21: GpH7-A5/GpH7-B3 variant P331_15Y/GpL16-k0 (antibody, human IgG1, kappa)
# heavy 1: not shown
# heavy 2: not shown
# light: B1 light
# notes: as for B1
# B22: GpH7-A5/GpH7-B3 variant P331_04F/GpL16-k0 (antibody, human IgG1, kappa)
# heavy 1: not shown
# heavy 2: not shown
# light: B1 light
# notes: as for B1
# B23: GpH7-A5/GpH7-B3 variant P331_07I/GpL16-k0 (antibody, human IgG1, kappa)
# heavy 1: not shown
# heavy 2: not shown
# light: B1 light
# notes: as for B1
# B24: GpH7-A5/GpH7-B3 variant P331_10E/GpL16-k0 (antibody, human IgG1, kappa)
# heavy 1: not shown
# heavy 2: not shown
# light: B1 light
# notes: as for B1
# B25: GpH7-A5/GpH7-B3 variant P331_11K/GpL16-k0 (antibody, human IgG1, kappa)
# heavy 1: not shown
# heavy 2: not shown
# light: B1 light
# notes: as for B1
# B26: GpH7-A5/GpH7-B3 variant K334_14T/GpL16-k0 (antibody, human IgG1, kappa)
# heavy 1: not shown
# heavy 2: not shown
# light: B1 light
# notes: as for B1
# B27: GpH7-A5/GpH7-B3 variant P331_03V/GpL16-k0 (antibody, human IgG1, kappa)
# heavy 1: not shown
# heavy 2: not shown
# light: B1 light
# notes: as for B1
# B28: GpH7-A5/GpH7-B3 variant P331_02A/GpL16-k0 (antibody, human IgG1, kappa)
# heavy 1: not shown
# heavy 2: not shown
# light: B1 light
# notes: as for B1
# B29: GpH7-A5/GpH7-B3 variant K334_12R/GpL16-k0 (antibody, human IgG1, kappa)
# heavy 1: not shown
# heavy 2: not shown
# light: B1 light
# notes: as for B1
# B30: GpH7-A5/GpH7-B3 variant K334_15Y/GpL16-k0 (antibody, human IgG1, kappa)
# heavy 1: not shown
# heavy 2: not shown
# light: B1 light
# notes: as for B1
# Biological target: T1, FcγRIIb extracellular domain with C-terminal His tag (human, UniProt P31994 43-217)
# T1 construct: extracellular domain; also called 2b; CD32
# T1 sequence: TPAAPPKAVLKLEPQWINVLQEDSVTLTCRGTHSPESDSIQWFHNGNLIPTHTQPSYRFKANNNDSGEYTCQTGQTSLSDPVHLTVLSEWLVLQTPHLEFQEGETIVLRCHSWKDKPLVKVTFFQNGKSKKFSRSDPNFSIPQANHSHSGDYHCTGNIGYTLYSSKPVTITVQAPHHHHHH
# Assay: SPR; % of GpH7-A5/GpH7-B3/GpL16-k0
row,Binder,He/Con 2b [%]
1,B1,143
2,B2,148
3,B3,110
4,B4,122
5,B5,141
6,B6,111
7,B7,154
8,B8,137
9,B9,85
10,B10,128
11,B11,136
12,B12,106
13,B13,104
14,B14,107
15,B15,141
16,B16,143
17,B17,134
18,B18,148
19,B19,113
20,B20,146
21,B21,127
22,B22,122
23,B23,127
24,B24,128
25,B25,93.9
26,B26,149
27,B27,132
28,B28,110
29,B29,144
30,B30,141

# Biological target: T2, FcγRIIa(H) extracellular domain with C-terminal His tag (human, UniProt P12318 34-217)
# T2 construct: extracellular domain; H131 allotype; also called 2aH; CD32
# T2 sequence: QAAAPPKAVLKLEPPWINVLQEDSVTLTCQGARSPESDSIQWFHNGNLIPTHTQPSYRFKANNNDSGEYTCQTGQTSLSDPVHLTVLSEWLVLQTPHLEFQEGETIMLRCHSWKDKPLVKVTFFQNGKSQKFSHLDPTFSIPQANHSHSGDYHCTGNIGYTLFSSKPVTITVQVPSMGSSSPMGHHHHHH
# Assay: SPR; % of GpH7-A5/GpH7-B3/GpL16-k0
row,Binder,He/Con 2aH [%]
1,B1,121
2,B2,113
3,B3,87.2
4,B4,95.6
5,B5,121
6,B6,86.5
7,B7,126
8,B8,120
9,B9,84.3
10,B10,87.5
11,B11,112
12,B12,85.9
13,B13,93.6
14,B14,94
15,B15,116
16,B16,116
17,B17,112
18,B18,114
19,B19,88.1
20,B20,119
21,B21,89
22,B22,87.7
23,B23,80.1
24,B24,90.1
25,B25,83.7
26,B26,118
27,B27,85.4
28,B28,93.9
29,B29,114
30,B30,122

# Biological target: T3, FcγRIa extracellular domain with C-terminal His tag (human, UniProt P12314 16-292)
# T3 construct: extracellular domain; also called 1a; CD64
# Assay: SPR; % of GpH7-A5/GpH7-B3/GpL16-k0
# T3 sequence (P12314 other isoform, or with tags, fused parts or gaps): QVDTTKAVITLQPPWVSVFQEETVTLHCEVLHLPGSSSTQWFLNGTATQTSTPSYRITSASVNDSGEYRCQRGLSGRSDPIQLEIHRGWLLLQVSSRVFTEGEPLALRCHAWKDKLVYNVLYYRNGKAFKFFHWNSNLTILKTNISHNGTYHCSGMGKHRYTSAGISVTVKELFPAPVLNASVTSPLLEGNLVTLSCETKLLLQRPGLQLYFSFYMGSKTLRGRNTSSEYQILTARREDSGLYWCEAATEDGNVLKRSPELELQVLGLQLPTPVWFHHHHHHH
row,Binder,He/Con 1a [%]
1,B1,99.6
2,B2,104
3,B3,106
4,B4,101
5,B5,99
6,B6,102
7,B7,98.7
8,B8,99.1
9,B9,100
10,B10,105
11,B11,98.7
12,B12,105
13,B13,109
14,B14,108
15,B15,100
16,B16,99.3
17,B17,99.9
18,B18,99
19,B19,106
20,B20,99.3
21,B21,109
22,B22,108
23,B23,106
24,B24,108
25,B25,100
26,B26,99.2
27,B27,104
28,B28,105
29,B29,98.2
30,B30,99.1

# Biological target: T4, FcγRIIa(R) extracellular domain with C-terminal His tag (human, UniProt P12318 34-217)
# T4 construct: extracellular domain; R131 allotype; also called 2aR; CD32
# T4 sequence: T2 sequence with H134R
# Assay: SPR; % of GpH7-A5/GpH7-B3/GpL16-k0
row,Binder,He/Con 2aR [%]
1,B1,150
2,B2,144
3,B3,104
4,B4,127
5,B5,144
6,B6,104
7,B7,155
8,B8,145
9,B9,88.7
10,B10,113
11,B11,141
12,B12,101
13,B13,101
14,B14,104
15,B15,149
16,B16,149
17,B17,143
18,B18,152
19,B19,105
20,B20,149
21,B21,112
22,B22,110
23,B23,109
24,B24,112
25,B25,94.6
26,B26,153
27,B27,114
28,B28,105
29,B29,151
30,B30,148

# Biological target: T5, FcγRIIIa extracellular domain with C-terminal His tag (human, UniProt P08637 17-208)
# T5 construct: extracellular domain; also called 3a; CD16
# Assay: SPR; % of GpH7-A5/GpH7-B3/GpL16-k0
# T5 sequence (P08637 other isoform, or with tags, fused parts or gaps): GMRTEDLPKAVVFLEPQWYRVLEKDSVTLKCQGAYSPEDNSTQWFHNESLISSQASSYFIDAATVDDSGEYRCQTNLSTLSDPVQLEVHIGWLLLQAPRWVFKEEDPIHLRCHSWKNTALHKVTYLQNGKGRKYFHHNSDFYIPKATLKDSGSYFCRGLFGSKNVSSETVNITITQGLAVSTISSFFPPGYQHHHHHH
row,Binder,He/Con 3a [%]
1,B1,152
2,B2,186
3,B3,67.1
4,B4,164
5,B5,149
6,B6,67.8
7,B7,156
8,B8,148
9,B9,64.8
10,B10,73.4
11,B11,138
12,B12,66
13,B13,71.6
14,B14,80.9
15,B15,140
16,B16,150
17,B17,132
18,B18,140
19,B19,68.4
20,B20,138
21,B21,74.9
22,B22,70.7
23,B23,60.4
24,B24,68.7
25,B25,61.8
26,B26,146
27,B27,66.9
28,B28,82.5
29,B29,93.5
30,B30,145
